Source: patent US20240383994A1 (CHIA TAI TIANQING PHARMACEUTICAL GROUP, published 2024)

Assays:
[1] = target: T1, human CD40 (hCD40), full length, on cells (human, UniProt P25942 21-277); test: cell-based or functional assay
[2] = target: T2, hCD40-His protein (Acro, Cat. No.: CD0-H5228) (human, UniProt P25942 21-193); test: BLI (Fortebio Octet RED96e), antibody captured on AHC sensor, antigen 1.56-100 nM, 1:1 model
T2 construct: Bought protein; also called human CD40 antigen; not shown: His tag
Experimental: (§1) The affinity of humanized anti-CD40 antibodies to an hCD40-His protein (Acro, Cat. No.: CD0-H5228) and a CynoCD40-His protein (Acro, Cat. No.: CD0-C52H6) was detected by a ForteBio molecular interaction system. Firstly, an AHC biosensor (Fortebio, Cat. No.: 18-5060) was activated, and then immersed in an anti-CD40 antibody solution at a final concentration of 5 μg/mL to capture the antibodies. Serially 2-fold diluted hCD40-His protein and CynoCD40-His protein in a final concentration range of 1.56 nM-100 nM were then […] the AHC biosensor. The response signals were detected in real time on a Fortebio molecular interaction system (Fortebio Octet RED96e) to give association and dissociation curves. After the completion of dissociation in each cycle, the AHC biosensor was regenerated for the next capture; the procedure was repeated until the affinity of the different antibodies for CD40 was determined. The resulting data were analyzed by Fortebio Data Analysis 11.0 software using a 1:1 (Langmuir) binding model to determine the Kₐ (Kₒₙ) and Kd (Kdis) values, and the dissociation constant KD was calculated by KD=Kd/Kₐ. See www.fortebio.com for more detailed detection procedures and related information.

[3] = target: T1, human CD40 (hCD40), full length, on …; test: cell-based or functional assay; remark: listed apart in the source
[4] = target: T3, hCD40-mFc (human); test: flow cytometry, blocking of hCD40-mFc (2 µg/mL) binding to CHO-K1-hCD40L cells
T3 construct: Prepared in-house in CHO cells; also called human CD40 recombinant protein containing a mouse antibody heavy chain Fc; Human CD40-mFc
Experimental: A CHO-K1-hCD40L cell suspension and a CHO-K1-CynoCD40L cell suspension at a cell concentration of 3×10⁵ cells/mL were separately added into a 96-well U-bottom plate at 100 μL/well. An hCD40-mFc protein at a final concentration of 2 μg/mL (prepared in-house, SEQ ID NO: 64) or a cynoCD40-mFc protein at a final concentration of 2 μg/mL (prepared in-house, SEQ ID NO: 65) was added correspondingly, before serially 2-fold diluted anti-CD40 antibodies in a final concentration range of 312.5 ng/ml-40000 ng/ml were added. The mixture was mixed well, and then incubated at 4° C. for 1 h. The cells were washed with PBS containing 2% of FBS, and then a PE-conjugated goat anti-mouse IgG (H+L) antibody (Abcam, Cat. No.: ab97041) diluted at a volume ratio of 1:500 was added, and the mixture was incubated at 4° C. for 0.5 h. The cells were washed with PBS containing 2% of […], and then resuspended in PBS containing 2% of FBS. The fluorescence signals were detected on a flow cytometer (Sartorius IQue3). The activity of anti-CD40 antibodies to block the binding of CHO-K1-hCD40L cells to an hCD40-mFc protein and CHO-K1-cynoCD40L cells to a cynoCD40-mFc protein was analyzed by the mean fluorescence intensity (MFI) of staining, and the IC₅₀ value was calculated by GraphPad Prism software.

[5] = target: T1, human CD40 (hCD40), full length, on …; test: flow cytometry (MFI) on 293T-hCD40-NFκB cells, PE anti-human IgG detection
[6] = target: T4, CynoCD40-His protein (Acro, Cat. No.: CD0-C52H6) (cynomolgus monkey, UniProt P25942 21-193 (human entry)); test: BLI (Fortebio Octet RED96e), antibody captured on AHC sensor, antigen 1.56-100 nM, 1:1 model
T4 construct: Bought protein; also called cynomolgus monkey CD40 antigen; not shown: His tag
T4 chain: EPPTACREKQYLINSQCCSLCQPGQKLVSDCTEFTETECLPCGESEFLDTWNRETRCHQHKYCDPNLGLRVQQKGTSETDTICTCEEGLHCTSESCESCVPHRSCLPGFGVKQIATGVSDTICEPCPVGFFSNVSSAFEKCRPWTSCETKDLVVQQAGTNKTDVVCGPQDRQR
Experimental: as §1

[7] = target: T1, human CD40 (hCD40), full length, on …; test: cell-based or functional assay; remark: listed apart in the source

| Binder | IC50, inhibition of Ramos cell apoptosis induced by CD40L and IL-4 [1] [pM] | Inhibition, % of Ramos cell apoptosis at 0.0128 ng/mL [1] [%] | Inhibition, % of Ramos cell apoptosis at 0.064 ng/mL [1] [%] | Inhibition, % of Ramos cell apoptosis at 0.32 ng/mL [1] [%] | Inhibition, % of Ramos cell apoptosis at 1.6 ng/mL [1] [%] | Inhibition, % of Ramos cell apoptosis at 8 ng/mL [1] [%] | Inhibition, % of Ramos cell apoptosis at 40 ng/mL [1] [%] | Inhibition, % of Ramos cell apoptosis at 200 ng/mL [1] [%] | Inhibition, % of Ramos cell apoptosis at 1000 ng/mL [1] [%] | Kd [2] [pM] | koff [2] [s⁻¹] | kon [2] [M⁻¹ s⁻¹] | IC50 (read off the curve); NF-κB luciferase reporter (RLU), 293T-hCD40-NFκB cells co-cultured 1:1 with CHO-K1-hCD40L cells [3] [ng/mL] | Kd [6] [pM] | koff [6] [s⁻¹] | kon [6] [M⁻¹ s⁻¹] | other results |
| --- | --- | --- | --- | --- | --- | --- | --- | --- | --- | --- | --- | --- | --- | --- | --- | --- | --- |
| Chi-B03 (antibody, human IgG4 S228P, kappa, V domains shown) VH: EVKLVESGGGLVQPGGSLRLSCATSGFTFSDFYMEWVRQPPGKRLEWIAASRDKANDYTTEYSPSVQGRFIVSRDSSQSILYLQMNALRTEDTAIYYCARDVGRSYALDYWGQGTSVTVSS VL: QVVLTQSPAIMSASPGEKVTMTCSASSSVTYMHWYQQKSGTSPKRWIYVTSKLASGVPTRFSGSGSGTSYSLTISSMEAEDAATYYCQQWSRKPPTFGAGTKLELKR | 11.9 | -10 | -8 | 16 | 31 | 90 | 90 | 84 | 70 |  |  |  |  |  |  |  |  |
| Chi-B01 (antibody, human IgG4 S228P, kappa, V domains shown, also called chimeric B01) VH: QIQLVQSGPELKKPGETVKISCKASGYTFTNYGMNWVKQAPGKGLKWMGWINPYTGEPTYADDFKGRFAFSVETSASTAYLQINNLKNEDTATYFCARKPPFDYWGQGTTLTVSS VL: DIVMTQAAPSVPVTPGESVSISCRSSKSLLHSNGNTYLYWFLQRPGQSPQILIYRVSNLASGVPDRFSGSGSGTAFTLRISRVEAEDVGVYYCMQHVEYPFTFGSGTKLEIKR | 30.1 | -24 | -33 | -12 | 2 | 55 | 93 | 96 | 93 | 7660 | 0.00246 | 321000 |  |  |  |  |  |
| Chi-B02 (antibody, human IgG4 S228P, kappa, V domains shown) VH: EVQLQQSGPELVKPGASVKMSCKASGYTFTSYVMYWVKQKPGQGLEWIGYVNPYNDGTNYNEKFKGKATLTSDKSSSTAYMELSSLTSEDSAVYYCARGAMDYWGQGTSVTVSS VL: DIVMTQAAPSVPVTPGESVSISCRSSKSLLHSQGNTYLYWFLQRPGQSPQILIYRVSNLASGVPDRFSGSGSGTAFTLRISRVEAEDVGVYYCMQHVEYPFTFGSGTKLEIKR | 27.5 | -18 | -16 | -5 | 5 | 59 | 92 | 88 | 75 |  |  |  |  |  |  |  |  |
| hzA01-3.1 (antibody, human IgG4 S228P, kappa, V domains shown, Humanized A01; also called hzA01L3 + hzA01H1) VH: QVQLQESGPGLVKPSETLSLTCTVSGFSLPTSGVHWIRQPPGKGLEWIGVIWAGGDTNYNPSLKSRVTISKDNSKNQVFLKLSSVTAADTAVYYCLGHGHFDVWGQGTLVTVSS VL: DVVMTQSPLSLPVTLGQPASISCRSSQSLVHSSGNTYLQWYLQRPGQSPGLLIYKVSNRFSGVPDRFSGSGSGTDFTLKISRVEAEDVGVYYCSQTTHVPWTFGQGTKLEIKR |  |  |  |  |  |  |  |  |  | 366 | 0.000601 | 1.64e+06 | ~0.6 | 365 | 0.000686 | 1.88e+06 | IC50 [4]: 22800 pM; EC50 (read off the curve) [5]: ~2 ng/mL |
| hzA01-2.1 (antibody, human IgG4 S228P, kappa, V domains shown, Humanized A01; also called hzA01L2 + hzA01H1) VH: QVQLQESGPGLVKPSETLSLTCTVSGFSLPTSGVHWIRQPPGKGLEWIGVIWAGGDTNYNPSLKSRVTISKDNSKNQVFLKLSSVTAADTAVYYCLGHGHFDVWGQGTLVTVSS VL: EIVLTQSPGTLSLSPGERATLSCRSSQSLVHSSGNTYLQWYQQKPGQAPRLLIYKVSNRFSGIPDRFSGSGSGTDFTLTISRLEPEDFAVYYCSQTTHVPWTFGQGTKVEIKR |  |  |  |  |  |  |  |  |  | 1760 | 0.00255 | 1.45e+06 | ~0.6 | 1500 | 0.00282 | 1.88e+06 |  |
| hzA01-1.1 (antibody, human IgG4 S228P, kappa, V domains shown, Humanized A01; also called hzA01L1 + hzA01H1) VH: QVQLQESGPGLVKPSETLSLTCTVSGFSLPTSGVHWIRQPPGKGLEWIGVIWAGGDTNYNPSLKSRVTISKDNSKNQVFLKLSSVTAADTAVYYCLGHGHFDVWGQGTLVTVSS VL: DIQMTQSPSSLSASVGDRVTITCRSSQSLVHSSGNTYLQWYQQKPGKAPGLLIYKVSNRFSGVPSRFSGSGSGTDFTLTISSLQPEDFATYYCSQTTHVPWTFGQGTKVEIKR |  |  |  |  |  |  |  |  |  | 808 | 0.00101 | 1.25e+06 | ~0.3 | 576 | 0.000923 | 1.6e+06 |  |
| hzA01-1.2 (antibody, human IgG4 S228P, kappa, V domains shown, Humanized A01; also called hzA01L1 + hzA01H2) VH: QVQLVESGGGVVQPGRSLRLSCAASGFSLPTSGVHWVRQAPGKGLEWVAVIWAGGDTNYADSVKGRFTISRDNSKNTVYLQMNSLRAEDTAVYYCLGHGHFDVWGQGTLVTVSS VL: DIQMTQSPSSLSASVGDRVTITCRSSQSLVHSSGNTYLQWYQQKPGKAPGLLIYKVSNRFSGVPSRFSGSGSGTDFTLTISSLQPEDFATYYCSQTTHVPWTFGQGTKVEIKR |  |  |  |  |  |  |  |  |  | 59900 | 0.0484 | 808000 |  |  |  |  |  |
| hzA01-2.2 (antibody, human IgG4 S228P, kappa, V domains shown, Humanized A01; also called hzA01L2 + hzA01H2) VH: QVQLVESGGGVVQPGRSLRLSCAASGFSLPTSGVHWVRQAPGKGLEWVAVIWAGGDTNYADSVKGRFTISRDNSKNTVYLQMNSLRAEDTAVYYCLGHGHFDVWGQGTLVTVSS VL: EIVLTQSPGTLSLSPGERATLSCRSSQSLVHSSGNTYLQWYQQKPGQAPRLLIYKVSNRFSGIPDRFSGSGSGTDFTLTISRLEPEDFAVYYCSQTTHVPWTFGQGTKVEIKR |  |  |  |  |  |  |  |  |  | 113000 | 0.101 | 893000 |  |  |  |  |  |
| CP-870893 (antibody, human IgG2, kappa, V domains shown) VH: not shown VL: DIQMTQSPSSVSASVGDRVTITCRASQGIYSWLAWYQQKPGKAPNLLIYTASTLQSGVPSRFSGSGSGTDFTLTISSLQPEDFATYYCQQANIFPLTFGGGTKVEIKR |  |  |  |  |  |  |  |  |  |  |  |  |  |  |  |  | MFI value (CD95 on Ramos cells), Fc crosslinking with anti-human IgG Fcγ antibody, 1 µg/mL antibody [7]: 136000 MFI; MFI value (CD95 on Ramos cells), Fc crosslinking with anti-human IgG Fcγ antibody, 10 µg/mL antibody [7]: 135000 MFI |
